From the DeepSol protein solubility set come the findings set out here.

This series in a line: soluble on expression in E. coli; label from the status in PepcDB or PDB records.
Consider “MTVEPFRNEPIETFQTEEARRAMREALRRVREEFGRHYPLYIGGEWVDTKERMVSLNPSAPSEVVGTTAKAGKAEAEAALEAAWKAFKTWKDWPQEDRSRLLLKAAALMRRRKRELEATLVYEVGKNWVEASADVAEAIDFIEYYARAALRYRYPAVEVVPYPGEDNESFYVPLGAGVVIAPWNFPVAIFTGMIVGPVAVGNTVIAKPAEDAVVVGAKVFEIFHEAGFPPGVVNFLPGVGEEVGAYLVEHPRIRFINFTGSLEVGLKIYEAAGRLAPGQTWFKRAYVETGGKDAIIVDETADFDLAAEGVVVSAYGFQGQKCSAASRLILTQGAYEPVLERVLKRAERLSVGPAEENPDLGPVVSAEQERKVLSYIEIGKNEGQLVLGGKRLEGEGYFIAPTVFTEVPPKARIAQEEIFGPVLSVIRVKDFAEALEVANDTPYGLTGGVYSRKREHLEWARREFHVGNLYFNRKITGALVGVQPFGGFKLSGTNAKTGALDYLRLFLEMKAVAERF”, for which the “soluble on expression in E. coli” value was “soluble”. For “MTVRALLTPEIAPRMGIVLFRPGSELMPLFMQGRVLLEPEPERYSSFASGAVPAASQPLADDPAVRAVFRNEAVIRRAGGVECLESWLLREKGCQWPHSDWHSENMTTMRHAPGAIRLCWHCDNQLRDQFTERLESMATDNCARWVLSVVRRDLGFDDSHVVTMPELCWWLVRNDLADALPESAARKALRLPKPVVPSVTRESDLVPSVPATSIIQDKAKKVLALKVDPESPESFMLRPKRRRWVNEKYTRWVKTQPCACCGKPADDPHHLIGHGQGGMGTKAHDLFVLPLCRKHHDELHADTVTFEEKYGSQLELIFRFIDRALAIGVLA”, the “soluble on expression in E. coli” value was “not soluble”. Take “MTVSEIRVRKINPRAKIPKRQSEGAAGYDIHSVESGRIPPNGRKSVRTGLAWDVPQSVVGLVFGRSGLALRNWIEVVETCVHPGEDKELVITLVNNGREVFEYEESSRIAQLVFVPVLSCEIDLVESLDLTERGCLGFGSTGMK”: the “soluble on expression in E. coli” value is listed as “not soluble”.

As for “MTVTDLSKKPLLLLDHVTMQFGGLVAVDDFTNEIREGELVGLIGPNGAGKTTVFNVITGIYTPTKGRIVFNDIDITGLRPYQITHLGIARTFQNIRLFSDMTVLENVLVAQHHVLSNPDADRILVKHGKPRKGHGRFWFWRAVTKIGYLKKEKEMVERAKDLIKRVGLEKVMYEKASSLPYGEQRKLEIARALATEPKLILLDEPAAGMNPKETEDLMEFIKQIRKDFNLTVLLIEHDMKVVMGICERIIVMDYGRIIAEGTPKEIQNDPRVIEAYLGREWESV”, the “soluble on expression in E. coli” value is recorded as “soluble”. As to “MTVTLAGNPIEVGGHFPQVGEIVENFILVGNDLADVALNDFASKRKVLNIFPSIDTGVCATSVRKFNQQAAKLSNTIVLCISADLPFAQARFCGAEGIENAKTVSTFRNHALHSQLGVDIQTGPLAGLTSRAVIVLDEQNNVLHSQLVEEIKEEPNYEAALAVLA”, the “soluble on expression in E. coli” value is listed as “soluble”. The value for “MTVVTTADTSQLYALAARHGLKLHGPLTVNELGLDYRIVIATVDDGRRWVLRIPRRAEVSAKVEPEARVLAMLKNRLPFAVPDWRVANAELVAYPMLEDSTAMVIQPGSSTPDWVVPQDSEVFAESFATALAALHAVPISAAVDAGMLIRTPTQARQKVADDVDRVRREFVVNDKRLHRWQRWLDDDSSWPDFSVVVHGDLYVGHVLIDNTERVSGMIDWSEARVDDPAIDMAAHLMVFGEEGLAKLLLTYEAAGGRVWPRLAHHIAERLAFGAVTYALFALDSGNEEYLAAAKAQLAAAE” was “not soluble”; that for “MTWADEVLAGHPFVVAHRGASAARPEHTLAAYDLALKEGADGVECDVRLTRDGHLVCVHDRRLDRTSTGAGLVSTMTLAQLRELEYGAWHDSWRPDGSHGDTSLLTLDALVSLVLDWHRPVKIFVETKHPVRYGSLVENKLLALLHRFGIAAPASADRSRAVVMSFSAAAVWRIRRAAPLLPTVLLGKTPRYLTSSAATAVGATAVGPSLPALKEYPQLVDRSAAQGRAVYCWNVDEYEDIDFCREVGVAWIGTHHPGRTKAWLEDGRANGTTR” was “not soluble”; that for “MVALAILRVEKLKSFGNVGGSEKHTARLQDTPNADTTKKNIRLIGMEDNSSLEDLVKTKIANTTKHKPRKDAVLCSEMFLSASPEYFRPDDPSRAGEWNHERMVLFAGASRQWLINNYGDKCVRAELHLDEATPHIHAYIVPINDKTKQLSHKEMFGGNGRVGSIKLSKLQDSYASALAPLGIERGVKGSKATHTKVKEYYQAVNSEPLTAVWSNKKLAPQPLESATNYVARIQNDDQFHAINHQLADRAFMQERLERAEQRARASEKERQRLEKEVRSLELKTQQLRDLELLDVAWELGLDYERERWRGHGHIINIDGSKFYDFSPDQQKGGGGAIDLVMHVNQCNFRQAVVWLHERFGEAGVERAAIAHVKNRAADIIQAEPRPQFTPPVENKANWPAVERYLTQQRGIPSDCLQMLQNLGLLYADDQQNAVFVMRDLEGQTSGAFLRGTRGENNSFKGYSKGTKRSDSWFYFGLGGQATDKVAHVLLCSSPIEAVSRAMLEYFVRGNVPPERTLYMAVDNINSLPVERLQNVPNILVTFGKDQSTNAAAQRVLELLPQSQQVLSKAADWNQQLLEYGWQLRRQQYQQQDDELSILEHHHHHH” was “not soluble”.

As for “MVAQNSVVVIGASGFGRESLDVLEAMKEAGHSLEIIGVVDDNPAAINLQRLAERKIEYLGTLKEWIEGSPKSCKYVLAIGNPTIRHKLSALLDKSGFDAFTAVHPSAVIGSQVVFGSGAVVCSGAVISTNVRLGVHVHINPNVTIGHDSILEDYVSINPAATISGEVLIMEETLIGAAATVLQGLTIGNRSLVGASSCVTKDISAGKVVKGIPARLEHHHHHH”, the “soluble on expression in E. coli” value is “soluble”. To “MVASSCLSMNDHHLLYQNISQDLDLGALLSSEVIQSLWGGYGELVRLIFAKRSVIVKHVKLPKPSEHPRGWNTDRSHQRKLHSYQVEVSWYAHFSGVMDSHCRVPQGLKTFQSENEWLIVMEDLAEAGFPKVITDAKLEHLRACLTWLANFHARYIGVCSDKLWHTGTYWHLATRPDELEALQDTELKKAAQLIDQTLSQAKFKTLVHGDAKLANFCFEQDELSVAAVDFQYVGHGCAMKDVALFMSSAVKPERCAEMEVWVLDTYFAKLQQALMVYQPNLDPDEVEREWRPLFAVAWADFQRFVKGWSPDHWKINPYTEALTRRALAYLRK” belongs “not soluble”; to “MVATVVNVQVKNEEKIETAPKKVVFDTKNLNLWYGEDHALKDINLSIHENEVTAIIGPSGCGKSTYLKTLNRMVELVPIVRTTGVIEYRERNIFDKSYPVEELRTHVGMVFQKPNPFPKSIYENVAYGPKIHGISDKKTLDEIVEKSLRGAAIWDELKDRLHDNAYGLSGGQQQRLCIARCLAIEPDVILMDEPTSALDPISTLKVEELIQELKKDFSIVIVTHNMQQAARISDKTAFFLSGEVVEYTDTNKLFTTPSDKRTEDYITGRFG”, “not soluble”. The value for “MVDGKHRMVYNITRFSCPTFSLSASAAAVAGRLTPAVPQNTLSRKSCYGAATSAPSSSYNVMYQQQEDTGIDAFAQFGQQSQQYHPSPELSEQINASKCSPYLTEILVGCEQLIAEGEEDSPTWISAIRQRFEDPQMDEVSKKIGVKLIIEMAFTMEPNQFRTADPQNTFSNLLKTLSYEVKDFLRVFIVPTLGEYHEGRKQLENDSRVYMAVFYAEVFVKLTLDNGSRFDKIGAALADQIEEILKFQPKDEYMKCLLRAFKVAGAELDTSEDLKLRADHILTIMGGYAKGSPLLGDSVKAQIFSLIECRTRGWDRAAARGPVRSSAGAGGGGGCVADRGEHDSSFDDSTDNDLTEEERQFLESHLEQVESRRGAEEDYDEQEMMKEFGKFVKEELQQAELKSTSEMLQKLEIEKDTAGAATETDETTPKTEEK” was “not soluble”; that for “MVDIANEVGASESAIPPLKMLLLEGARQAALEAGLQNNSGILADTTFGQQALNDVTGQGWWIGRPVEMPGSYPLKLEHGDIGSQLVSWPQEHVVKCLVFYHPLDAESVRLEQEALIDEVYRACCQSGHDLLLEVILPRDAADQNEQYYPQIVERFYQLGILPDWWKLPPLSPDRWREISQHIEHYDPECRGILILGLDAPESELKSGFAAAADMPWVKGFAVGRTIFGEPSRQWLGGQLNDEQLIATVKQKYRMLIDYWREYRPAR” was “not soluble”; that for “MVDYHYFKSKLNHFYGRYVGYNQRPVFFDIDQTFPELNHITRHFPDIKREFENVQANVKEFPRYHDIDPGESAISNTTEKNWNVFMLYLLGYQLKEARLLCPELCNLLEGIPHLIQAFFSILEPGKSIPLHEGPYIGYLRYHLGIHVPQNNPPQILVNNQTYTWKEGEAVLFDDSWPHEVRNTSDDYRAVLIIDVLRPMPFLPQLVNQFVTHVIARYFYGRKVMKRAMQYGGEVKPLAL” was “not soluble”.

On to “MVELCELHMMPEEDQWPDDIDARIAALNFCGEDSMLFESVDPSVSTDSLDSQQFRERCQMKKEDFQLAFADSGHWQSGINDNLTTWGRIRTSEPLDERTASAPDVWNVKRSDSARSPNRPNSLIANFVSGDATRFVDVNDNEIREANEEIIRKDRWRRDSARRCSSGGQNQKRTFADILEKNVTAPTSMAITSSDNEKPPKLDFLAMHHEMPSLCESFTASFRDAIIKMQKCEPLPSITSTNDFPLFFQEDSPDSGLGCSGPSHIEDWQSLSVLLPKHVAEACSFFKSNTQLLTSSTSKTAPQTSTNIVSNCIDRRISGISASANEACRTCYRVRRRIHPPVWAQTAQSKTVLCDCASTPTDTNFSFAPTTSTTRHQLRAKELSIVGLPIYAAKRTLVENVVEGVAAISRGDGSDLLVIAMRCLIEDGLQENVSAWTMIQTVTSKGPATKDVHSIVKQLEECSKTDNVKVEIFFEELIRENSLDCWLCYIVLKEKVLKTLYSENAFLLSASSEYRTLLWRMVDSLSLLPVIEARSDSVHQQFKSMQQWGGASRIASDSRVPKSSSFPARLSTAPSRRSRIPLSTSRISISSTTSTPRSARSPSTTSRIRVASIMGDFTLANFSLSDGEKVSVLSTRGGLARCVRLTTSHSKINNGVIPIEHLLFQ”, for which the “soluble on expression in E. coli” value was “not soluble”. Regarding “MVELLAPARDLSGLITAFNNGADSVYCGLKEMSMRATAKNFERNELIEGINFAHDADKRVYLCTNTVVYEDDILNLNEILEFAKSAEVDAIIVNDIGAMVTAKELGLEVHVSVQNNITNSKTAEFFSKFAKRVVLSRELTLNQIKRIKENLKVNKVDLELEGFIHGALCTAMSGRCYLSSYLFNRNANCGDCLQPCRRSWKLVNEHADGTHELISEGKYLLSPKDLCMIEHIPEMIDVFDCFKIEGRAKNVDYVMRATKTYREAIDSVVDGTYEEKLPIFKKELDKIYNREYDTGFYFRDLTCNHDLQYEFEGNVSPYKKIEVGKVVNYFKKVDVAEITLIDDLKVGDSVLIIGPTTGCIEEKIESMQVEGENITTAKKGQNVGIKLENLVRENDKVYILKED”, the “soluble on expression in E. coli” value is “not soluble”. As for “MVENIPLAEEEHNKWHQDAVSLHLEFGIPRTAAEDIVQQCDVCQENKMPSTLRGSNKRGIDHWQVDYTHYEDKIILVWVETNSGLIYAERVKGETGQEFRVQTMKWYAMFAPKSLQSDNGPAFVAESTQLLMKYLGIEHTTGIPWNPQSQALVERTHQTLKNTLEKLIPMFNAFESALAGTLITLNIKRKGGLGTSPMDIFIFNKEQQRIQQQSKSKQE”, the “soluble on expression in E. coli” value is recorded as “soluble”. As for “MVENVKIIRKKIKNMYLVVNPDCSVVVKAPVHVSDEYINSFIKKKESWIKKHLENFESLNSKSVAKKYIDGELFKYLGNEYILKVYPSKKEYLEISDNFFNLYVLETNDFEKKKKIIEKFYRKRAEIELFEIFKSNYKVVTEKMPDFSVRKMKKRWGSCSFHKNKIILNERLIEKSKDCIEYVVFHELAHLRYPNHSKDFYNYLTELMPEWKVKKLKLNERHLEHHHHHH”, the “soluble on expression in E. coli” value is reported as “soluble”.
